Results published in patent US20230355813A1, “Theranostic Silicon-Fluoride Heteroaromatic Systems and Methods Thereof” (Fuzionaire Diagnostics, Inc., priority 2022, published 2023).

Experiments:
[1] = pH 10
From the text: Brief descriptions of each property and the characterization of each property are stated below. • a) Hydrophilicity. Hydrophilicity relates to the strength of being dissolved in or absorbed in aqueous solutions. It denotes a preference for liquids, solutions, or surfaces with a high dipole moment, like water. Lipophilicity denotes a preference for liquids, solutions, or surfaces with a low dipole moment, such as lipid solutions. The more polar the HetSiFA, the less masking of the lipophilicity may be needed in the radiopharmaceutical via introducing cumbersome and lengthy linkers. The hydrophilicity of HetSiFAs is assessed by calculating and/or measuring the octanol/water partition coefficient log P. Log D measures the lipophilicity of ionizable compounds, where the partition is a function of the pH. The reversed-phase HPLC retention times tR can be used to qualitatively compare the polarity of HetSiFAs. • b) Hydrolytic stability. […] At different time points, the substrate is quantified by HPLC UV monitoring. […] The hydrolysis is monitored by HPLC (˜7 timepoints). […] In addition, the stability of compounds can be assessed in rat and human plasma and in microsomes. • c) Radiolabeling. […] The radiolabeling properties of synthesized HetSiFAs can be assessed using low amounts of radioactivity. […]

FIG. 26 = assay: FIG. 26
From the text: Table printed on a drawing sheet, FIG. 26
The patent's description of the figure: FIG. 26 illustrates HSA binding assay results of HetSiFA compounds in accordance with an embodiment of the invention.
FIG. 26 illustrates human serum albumin (HSA) binding assay results of HetSiFA compounds in accordance with an embodiment. A standard curve can be first established using reference compounds (See, e.g., Valko, K. et al., J. Pharm. Sci. 2003, 92 (11), 2236-2248; Wurzer, A. J. et al., PSMA binding dual mode radiotracer and therapeutic. 2020, WO2020157177A1; the disclosures of which are herein incorporated by reference.) The HSA binding assay results include four HetSiFA theranostic compounds, FTX-164, FTX-165, FTX-168, and FTX-181 (structures shown in FIG. 26), and two therapeutics Lutathera and Lu-NeoB. […] Test condition of the HSA binding assay includes: Column: Chiralpak HSA (100×2.1 mm, 5 μm, Cat. No. HSA5LM-C0004), flow rate: 0.3 mL/min. Mobile phase: A—NH40Ac buffer (50 mM, pH=7), freshly prepared each day; B—isopropanol (HPLC grade); 0-3 min: isocratic 100% A, 0% B; 3-40 min: gradient to 80% A, 20% B; 40-60 min: isocratic 80% A, 20% B. Samples: 9 reference compounds, concentration 0.5 mg/mL in i-PrOH/NH4OAc (50 mM) pH=7, 50:50. […]
First reader's note: HSA % is human serum albumin binding; the structures of the compounds are drawn beside the table on the same sheet.

[2] = ex vivo biodistribution in healthy mice; settings: for bone uptake: ex vivo biodistribution, 3 healthy Balb/c female mice, indicates Si-18F bond stability in vivo
[3] = stability in solution / on storage (observations); assay type: physicochemical; settings: prolonged storage

COc1ncccc1[Si](F)(C(C)(C)C)C(C)(C)C [5-(Di-tert-butylfluorosilyl)-6-methoxypyridine]
hydrolytic stability compared to phenyl-SiFA [1]: higher hydrolytic stability than phenyl-SiFA

^18F-Pyridine-HetSiFA-Lu-DOTAGA-TATE [FTX-164]
HSA % (FIG. 26): 97.78%

Lu-DOTAGA-^18F-Pyrazole-HetSiFA-PEG12-TATE [^18F-FTX-181]
bone uptake [2]: less bone uptake
accumulation in the liver ([2]; healthy Balb/c female mice): low
washout from non-targeted organs ([2]; healthy Balb/c female mice): washes out from non-targeted organs except for the gallbladder

^18F-Pyrazole-HetSiFA-Lu-DOTAGA-TATE [^18F-FTX-165]
bone uptake [2]: Little bone uptake

COc1ccncc1[Si](F)(C(C)(C)C)C(C)(C)C [3-(Di-tert-butylfluorosilyl)-4-methoxypyridine]
hydrolytic stability compared to phenyl-SiFA [1]: slightly lower hydrolytic stability than phenyl-SiFA

CC(C)(C)OC(=O)NCCOCCn1nc(NCC(=O)O)cc1[Si](F)(C(C)(C)C)C(C)(C)C [PPI-24068, (1-(2-(2-((tert-butoxycarbonyl)amino)ethoxy)ethyl)-5-(di-tert-butylfluorosilyl)-1H-pyrazol-3-yl)glycine]
stability on storage and in basic medium [3]: some instability
